Reference: patent publication US20190218553, “VON WILLEBRAND FACTOR (VWF)-TARGETING AGENTS AND METHODS OF USING THE SAME” (DUKE UNIVERSITY, published 2019)

Legend:
[1] = target: T1, von Willebrand factor (VWF) (Homo sapiens, UniProt P04275 P04275:764-2813); assay: filter; Bmax 58%; 2 mM CaCl2, 37 C; details: tags: factor VIII free, Haematologic Technologies Inc; label: 5'-32P
Experimental: (§1) Affinity constants (Kd values) were determined using double-filter nitrocellulose filter binding assays (Rusconi et al, Thromb. Haemost. $4:841-848 (2000)). All binding studies were performed in binding buffer F (20 mM HEPES, pH 7.4, 150 mM NaCl, 2 mM CaCl₂, and 0.01% BSA) at 37° C. Human purified VWF (factor VIII free) was purchased from Haematologic Technologies Inc. (Essex Junction, Vt.) and used in the double-filter nitrocellulose filter binding assay to determine the Kd of the aptamers. Briefly, RNA were end-labeled at the 5′ end with T4 polynucleotide kinase (New England Biolabs, Beverly, Mass.) and [γ³²P] ATP (Amersham Pharmacia Biotech, Piscataway, N.J.) (Fitzwater and Polisky, Methods Enzymol. 267:275-301 (1996)). End-labeled RNA was diluted in binding buffer F, heat denatured at 65° C. for 5 minutes, and subsequently equilibrated at 37° C. Direct binding was performed by incubating trace ³²P-RNA with varying concentrations of VWF protein in binding buffer F at 37° C. for 5 min. The fraction of the nucleic acid-protein complex which bound to the nitrocellulose membrane was quantified with a phosphorimager (Molecular Dynamics, Sunnyvale, Calif.). Non-specific binding of the radiolabeled nucleic acid was subtracted out of the binding such that only specific binding remained (Wong and Lohman, Proc. Natl. Acad. Sci. USA 90:5428-5432 (1993)).

[2] = target: T1, von Willebrand factor (VWF); assay: filter; Bmax 80%; 2 mM CaCl2, 37 C; details: tags: factor VIII free human purified VWF, Haematologic Technologies Inc; label: 5'-32P
Experimental: as §1

[3] = target: T1, von Willebrand factor (VWF); assay: filter; Bmax 86%; 2 mM CaCl2, 37 C; details: Haematologic Technologies Inc, label: 5'-32P
Experimental: as §1

[4] = target: T1, von Willebrand factor (VWF); assay: filter; Bmax 82%; 2 mM CaCl2, 37 C; details: Haematologic Technologies Inc, label: 5'-32P
Experimental: as §1

[5] = target: T1, von Willebrand factor (VWF); assay: filter; Bmax 81%; 2 mM CaCl2, 37 C; details: tags: factor VIII free, Haematologic Technologies Inc; label: 5'-32P
Experimental: as §1

[6] = target: T1, von Willebrand factor (VWF); assay: filter; Bmax 67%; 2 mM CaCl2, 37 C; details: tags: factor VIII free, Haematologic Technologies Inc; label: 5'-32P
Experimental: as §1

[7] = target: T1, von Willebrand factor (VWF); assay: filter; Bmax 88%; 2 mM CaCl2, 37 C; details: tags: factor VIII free, Haematologic Technologies Inc; label: 5'-32P
Experimental: as §1

[8] = target: T1, von Willebrand factor (VWF); assay: filter; Bmax 54%; 2 mM CaCl2, 37 C; details: tags: factor VIII free, Haematologic Technologies Inc; label: 5'-32P
Experimental: as §1

[9] = target: T1, von Willebrand factor (VWF); assay: filter; Bmax 78%; 2 mM CaCl2, 37 C; details: Haematologic Technologies Inc, label: 5'-32P
Experimental: as §1

[10] = target: T1, von Willebrand factor (VWF); assay: filter; Bmax 87%; 2 mM CaCl2, 37 C; details: Haematologic Technologies Inc, label: 5'-32P
Experimental: as §1

[11] = tags: factor VIII free human purified VWF

ACGAACUGCCCUCAGCUAUUUCAUUUGCUGACGCACAGACGU (ssRNA, 2'-F C and U; 2'-OH A and G; 3' idT) [T36]
Kd [1]: 11 nM

ACGAACUGCCCUCGUAUUAUUUCGACGCACAGACGU (ssRNA, 2'-F C9,C10,C11,C26,C28,U36; ribo G27; rest 2'-OMe; 3' idT) [T89 vrt2]
Kd [2]: 12 nM

ACGAACUGCCCUCGUAUUAUUUCGACGCACAGACGU (ssRNA, 2'-F G8,C9,C10,C11,A25,C26,G27,C28,A29; rest 2'-OMe; 3' idT) [T89 vrt10]
Kd [3, 11]: 548 nM

CCGAACUGCCCUCGAUCGACGCACAGACGG (ssRNA, mCmCmGmAmAmCmUmGfCfCfCmUmCmGmAmUmCmGmAfCrGfCmAmCmAmGmAmCmGmGidT) [DTRI-013]
Kd [1]: 5.4 nM

ACGAACUGCCCUCUAUUUCAUUUGACGCACAGACGU (ssRNA, 2'-F C9,C10,C11,C26,C28; ribo G27; rest 2'-OMe; 3' idT) [T93 vrt4]
Kd [4, 11]: 5.7 nM

ACGAACUGCCCUCUAUUUCAUUUGACGCACAGACGU (ssRNA, 2'-F C9,C10,C11,C26,G27,C28,U36; rest 2'-OMe; 3' idT) [T93 vrt6]
Kd [4, 11]: 33 nM

ACGAACUGCCCUCGAUCGACGCACAGACGU (ssRNA, rAfCmGmAmAmCfUrGfCfCfCfUmCmGmAmUmCmGrAfCrGfCrAmCmAmGmAmCrGfU-idT) [T59 vrt10]
Kd [5]: 0.4 nM

ACGAACUGCCCUCGAUCGACGCACAGACGU (ssRNA, mAmCmGmAmAmCmUmGfCfCfCmUmCmGmAmUmCmGmAfCrGfCmAmCmAmGmAmCmGmUidT) [DTRI-008]
Kd [6]: 7 nM

ACGAACUGCCCUCGAUCGACGCACAGACGU (ssRNA, rAfCrGmAmAmCfUmGfCfCfCfUmCmGmAmUmCmGrAfCrGfCrAmCmAmGmAfCrGfU-idT) [T59 vrt11]
Kd [7]: 1.3 nM

ACGAACUGCCCUCGAUCGACGCACAGACGU (ssRNA, mAfCrGmAmAmCfUrGfCfCfCfUmCmGmAmUmCmGrAfCrGfCrAmCmAmGmAfCrGfU-idT) [T59 vrt8]
Kd ([3]; tags: factor VIII free): 1.8 nM

ACGAACUGCCCUCAGCAUUUCAUUGCUGACGCACAGACGU (ssRNA, 2'-F C and U; 2'-OH A and G; 3' idT) [T40]
Kd [8]: 11 nM

ACGAACUGCCCUCGAUCGACGCACAGACGUUUUUU (ssRNA, rAfCrGmAmAmCfUrGfCfCfCfUmCmGmAmUmCmGrAfCrGfCrAmCmAmGmAfCrGfUmUmUmUmUmU-idT) [T79 vrt1]
Kd ([9]; tags: factor VIII free): 1.9 nM

ACGAACUGCCCUCGAUCGACGCACAGACGUUUUUU (ssRNA, mAmCmGmAmAmCmUmGfCfCfCmUmCmGmAmUmCmGmAfCrGfCmAmCmAmGmAmCmGfUmUmUmUmUmU-idT) [T79 vrt2]
Kd [5]: 24 nM

ACGAACUGCCCUCAUUAUUGACGCACAGACGU (ssRNA, 2'-F C and U; 2'-OH A and G; 3' idT) [T70]
Kd [5]: 13 nM

ACGAACUGCCCUCUUUUUUGACGCACAGACGU (ssRNA, 2'-F C9,C10,C11,C22,G23,C24,U32; rest 2'-OMe; 3' idT) [T94 vrt6]
Kd [9, 11]: 42 nM

ACGAACUGCCCUCUUUUUUGACGCACAGACGU (ssRNA, 2'-F C and U; 2'-OH A and G; 3' idT) [T94]
Kd ([10]; tags: factor VIII free): 5 nM

ACGAACUGCCCUCGAUCGACGCACAGACGU (ssRNA, rAmCrGmAmAmCfUrGfCfCfCfUmCmGmAmUmCmGrAfCrGfCrAmCmAmGmAfCmGfU-idT) [T59 vrt9]
Kd ([3]; tags: factor VIII free): 1 nM

ACGAACUGCCCUCGAUCGACGCACAGACGU (ssRNA, 2'-F C and U; 2'-OH A and G; 3' idT) [T59]
Kd ([9]; tags: factor VIII free): 8.8 nM

ACGAACUGCCCUCUUAUGACGCACAGACGU (ssRNA, 2'-F C and U; 2'-OH A and G; 3' idT) [T68]
Kd ([4]; tags: factor VIII free): 16 nM

ACGAACUGCCCUCGAUCGACGCACAGACGUACCCG (ssRNA, 2'-F C9,C10,C11,C20,C22; ribo G21; rest 2'-OMe; 3' idT) [T82 vrt4]
Kd [10, 11]: 38.5 nM

ACGAACUGCCCUCGAUCGACGCACAGACGUACCCG (ssRNA, 2'-F C9,C10,C11,C20,G21,C22; rest 2'-OMe; 3' idT) [T82 vrt7]
Kd [9, 11]: 268 nM

B1: T25 vrt5 (ssRNA)
RNA: ACGAACUGCCCUCAGCUACUUUCAUGUUGCUGACGCACAGACGU
modifications: rAfCrGmAmAfCfUrGfCfCfCfUfCrArGfCfUrAfCfUfUfUfCrAfUrGfUfUrGfCfUrGrAfCrGfCrAfCmAmGmAfCrGfU-idT
Kd [1]: 7.1 nM

B2: T25 vrt16 (ssRNA)
RNA: ACGAACUGCCCUCAGCUACUUUCAUGUUGCUGACGCACAGACGU
modifications: rAfCmGrArAfCfUrGfCfCfCfUfCrArGfCfUrAfCfUfUfUfCrAfUrGfUfUrGfCfUrGrAfCrGfCrAfCrArGrAmCrGfU-idT
Kd ([9]; tags: factor VIII free): 4.3 nM
